Measurements: patent publication US20040071694A1 (published 2004)

T1: biotinylated EpoR (Abbott CHO cell derived ref.# RB69084:4) (UniProt P19235 25-250, limits assumed, biotinylated with biotin-NHS (sites not given))
T1 construct: also called biotin EpoR; biotin-EpoR
T1 sequence (looked up): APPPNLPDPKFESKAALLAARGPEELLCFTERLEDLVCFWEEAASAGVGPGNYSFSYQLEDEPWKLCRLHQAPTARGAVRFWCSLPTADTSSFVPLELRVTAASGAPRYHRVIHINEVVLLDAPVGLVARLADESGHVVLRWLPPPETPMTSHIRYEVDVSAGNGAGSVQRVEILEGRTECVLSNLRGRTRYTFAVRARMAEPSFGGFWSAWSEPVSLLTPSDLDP

T2: peptide SE-3 (human)
T2 construct: also called SE-3 peptide
T2 peptide: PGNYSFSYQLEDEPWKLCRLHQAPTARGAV

T3: soluble human EPO receptor (human, UniProt P19235 25-250)
T3 construct: extracellular domain; Printed only as 'soluble human EPO receptor'
T3 sequence (looked up): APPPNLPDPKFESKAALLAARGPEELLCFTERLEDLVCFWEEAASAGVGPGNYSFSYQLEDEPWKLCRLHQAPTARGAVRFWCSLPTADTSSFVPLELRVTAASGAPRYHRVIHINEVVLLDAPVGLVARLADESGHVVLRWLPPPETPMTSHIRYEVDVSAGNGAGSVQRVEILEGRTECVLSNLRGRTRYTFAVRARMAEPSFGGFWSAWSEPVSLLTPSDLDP

T4: full length recombinant human EPO receptor (human, UniProt P19235 25-508)
T4 sequence: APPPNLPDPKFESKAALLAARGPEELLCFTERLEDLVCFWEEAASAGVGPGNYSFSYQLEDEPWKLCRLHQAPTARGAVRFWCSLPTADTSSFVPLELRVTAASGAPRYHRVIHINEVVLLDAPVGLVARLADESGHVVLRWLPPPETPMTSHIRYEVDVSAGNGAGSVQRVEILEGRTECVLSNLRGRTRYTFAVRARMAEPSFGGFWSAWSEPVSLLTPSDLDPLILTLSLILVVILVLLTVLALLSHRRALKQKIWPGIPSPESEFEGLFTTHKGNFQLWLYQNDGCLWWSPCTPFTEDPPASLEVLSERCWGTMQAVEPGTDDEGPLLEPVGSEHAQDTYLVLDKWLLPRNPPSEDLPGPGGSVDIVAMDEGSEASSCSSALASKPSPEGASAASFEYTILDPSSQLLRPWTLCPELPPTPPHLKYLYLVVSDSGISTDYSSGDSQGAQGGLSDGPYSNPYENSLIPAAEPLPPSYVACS


Legend:
[1] = target: T1, biotinylated EpoR (Abbott CHO cell …); test: ELISA, HEK 293 supernatant titrated 1:2 on biotin-EpoR captured on streptavidin plates
peptide SE-3 = target: T2, peptide SE-3; test: ELISA on plate-coated peptide SE-3
Description: Plates were blocked for 30 minutes at room temperature with 100 ul of 5% BSA in PBS (Gibco (Invitrogen (Carlsbad, Calif.)) Cat.#10010). After removal of blocking solution, 50 ul of Ab12 at 5 ug/ml in PBS with 1% BSA was added to wells and plates were incubated at room temperature for 2 hours. Plates were washed three times using a Skatron 400 Plate Washer with PBS/0.05% Tween 20 and 50 ul of secondary antibody diluted in PBS/0.25% BSA/0.05% Tween 20 added to the wells. For Ab12, goat anti-human IgG (Fc)-HRP (Caltag (Burlingame, Calif.) Cat.#H10507) diluted 1:1000 was used and for Ab 71A (available from the American Type Culture Collection HB 11689, also described in U.S. Pat. No. 6,319,499), goat anti mouse IgG (Fc)-HRP (Jackson Laboratories (West Grove, Pa.) Cat.#115-035-164) diluted 1:5000 was used. After a 1 hour incubation at room temperature, plates were washed three times as before and 50 ul of OPD Developing Reagent (Sigma #P9187) added to each well. Color development was stopped by addition of 50 ul of 1N HCl to the wells and optical density measured at 490 nm on a Victor 1420 Multi-Label Counter.

[2] = target: T3, soluble human EPO receptor; test: SPR (Biacore 2000), antibody immobilized on chip, soluble receptor 10-200 nM injected
Description: Immobilizations of antibody were performed using the default immobilization program in the Biacore software package. Antibodies were diluted to 10 ug/mL in the supplied acetate buffers to prescreen for the appropriate pH at which to conduct the immobilizations. For immobilizations, antibodies were diluted into the appropriate acetate buffer (10 mM acetate pH 4.0) and coupled directly to the chip surface using standard EDC chemistry at three different protein levels (500, 1000, and 1500 RU). The fourth flow cell was mock coupled with EDC to cap the carboxyl groups and provide a background surface as a negative control.
Binding studies were performed by successive injections of varying concentrations of soluble human EPO receptor over the chip surface (500 RU immobilized protein). […]
Data were fit to the models available in the BiaEvaluation 3.0.2 software package (Biacore). […] Dissociation constants were calculated directly from fitting to the Langmuir binding model. For the bivalent analyte model, the dissociation constants were calculated indirectly using the calculated values for the kinetic dissociation and kinetic association constants, kd and kₐ.

[3] = target: T4, full length recombinant human EPO …; test: cell-based or functional assay

Binding (dilution of supernatant) [1] | binding result (peptide SE-3) | Kd [2] [nM] | proliferation of F36E cells after storage of Ab12 at 4 C, compared with the EPO control [3] [fold] | Binder
– | no binding (tested: 5 ug/ml) | 17.5 | ~10 | Ab12 (antibody, human IgG2, V domains shown, Human antibody from XenoMouse; also called ABT2-SCX-012; AB-ABT2-XG2-012) VH: QVQLQESGPGLVKPSETLSLTCTVSGASISSYYWSWIRQPPGKGLEWIGYIYYSGSTNYNPSLKSRVTISVDTSKNQFSLKLRSVTAADTAVYYCARERLGIGDYWGQGTLVTVSS VL: DIQLTQSPSSLSASVGDRVTITCRASQGIRNDLGWYQQKPGKAPKRLIYAASSLQSGVPSRFSGSGSGTEFTLTISSLQPEDFATYYCLQHNTYPPTFGQGTKVEIK
8 dilution 1:n | – | – | – | ABT2-SCX-254 (antibody, V domains shown) VH: QVQLVESGGGVVQPGRSLRLSCAASGFTFSSYGMHWVRQAPGKGLEWVAVIWFDGNNKFYADSVKGRFTISRDNSKNTLYLQMNSLRVEDTAVYYCARGGSYWDYWGQGTLVTVSS VL: DIVMTQTPLFSFVMIGQPASISCRSRQSLVHSDGNTYLNWLQQRPGQPPRLLIYKTSNRFSGVPDRFSGSGAGTDFTLKISRVEAEDVGVYYCMQATQFPITFGQGTRLEIK

More lines, now with the values behind:

Binder | Binding (dilution of supernatant) [1] | binding result (peptide SE-3) | Kd [2] [nM] | proliferation of F36E cells after storage of Ab12 at 4 C, compared with the EPO control [3] [fold]
ABT2-SCX-022 (antibody, V domains shown) VH: QVQLVESGGGVVQPGRSLRLSCAASGFTFSSYGMHWVRQAPGKGLEWVVVISYDGSNKYYADSVKGRFTISRDNSKNTLYLQMNSLRVEDTAVYYCARDHGGRYVYDYGMDVWGQGTTVTVSS VL: DIQMTQSPSSVSASVGDRVSITCRASQGISSWLAWYQQKPGKAPTLLIYAASSLQRGVPSRFSGSGSGTDFTLTISSLQPEDFATYFCQQANSFPFTFGPGTKVDIK | > 64 dilution 1:n | – | – | –
ABT2-SCX-267 (antibody, V domains shown) VH: QVQLVESGGGVVQPGRSLRLSCAASGFTFSSYGMHWVRQAPGKGLEWVAVISYDGSNKYYADSVKGRFTISRDNSKNTLYLQMNSLRVEDTAVYYCAKDHGGRYVYDYGMDVWGQGTTVTVSS VL: DIQMTQSPSSVSASVGDRVSITCRASQGIGSWLAWYQQKPGQAPTLLIYAASSLQRGVPSRFSGSGSGTDFTLTINSLQPEDFATYFCQQANSFPFTFGPGTKVDVK | > 64 dilution 1:n | – | – | –
Ab198 (antibody, human IgG2, V domains shown, Human antibody from XenoMouse) VH: QVQLVESGGGVVQPGRSLRLSCVASGFTFSSYGMHWVRQAPGKGLEWVAVISYDGSNKYYADSVKGRFTISRDNSKNTLYLQMNSLRVEDTAVYYCARDHGGRYVYDYGMDVWGQGTTVTVSS VL: DIQMTQSPSSVSASIGDRVSITCRASQGISSWLAWYQQKPGKAPTLLIYAASTLQRGVPSRFSGSGSGTDFTLTISSLQPEDFATYFCQQANSFPFTFGPGTKVDIK | – | no binding | 13.9 | –
ABT2-SCX-054 (antibody, V domains shown) VH: QVQLVESGGGVVQPGRSLRLSCAASGFTFSKYGMHWVRQAPGKGLEWVAVLWYDGSNKYYADSVKGRFTISRDNSKNTLYLQMNSLRAEDTAVYYCARGPYYFDYWGQGTLVTVSS VL: not shown | > 64 dilution 1:n | – | – | –
